This note sets out measurements from publication doi:10.1101/2022.04.02.486817.

Usually Kd stands for the free concentration of one partner at which half of the binding sites on the other are occupied at equilibrium, for simple one-to-one binding. High values mean lower affinity, low ones higher affinity.

In one assay the target is AP2 α-appendage (UniProt P17427). The assay can be described thus: ITC. Background: Isothermal titration calorimetry measures the heat released or taken up as one component is titrated into another.
Chain of AP2 α-appendage (P17427 702-938): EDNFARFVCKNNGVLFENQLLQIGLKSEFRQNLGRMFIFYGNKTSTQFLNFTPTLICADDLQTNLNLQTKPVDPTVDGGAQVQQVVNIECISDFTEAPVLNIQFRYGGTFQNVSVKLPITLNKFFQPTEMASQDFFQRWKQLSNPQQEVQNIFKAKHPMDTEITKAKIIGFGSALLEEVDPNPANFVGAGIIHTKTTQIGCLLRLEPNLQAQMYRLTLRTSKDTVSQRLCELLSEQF
For the next assay, the target named is Cμ2 (UniProt P84092). The assay is described as follows: ITC.
Chain of Cμ2 (P84092 158-435): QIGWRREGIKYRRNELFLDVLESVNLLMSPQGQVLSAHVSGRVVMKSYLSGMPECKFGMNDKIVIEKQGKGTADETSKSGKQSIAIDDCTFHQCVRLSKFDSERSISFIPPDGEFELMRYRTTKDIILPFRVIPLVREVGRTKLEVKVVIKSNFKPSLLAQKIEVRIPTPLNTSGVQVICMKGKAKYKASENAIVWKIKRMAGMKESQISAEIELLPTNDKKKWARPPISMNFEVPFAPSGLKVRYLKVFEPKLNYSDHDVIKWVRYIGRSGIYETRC
A further assay concerns the target GST-TGN38 (UniProt P19814). The assay can be described thus: BLI. For orientation: In BLI a coated tip is dipped into the sample, and binding shifts an interference pattern.

Chain of GST-TGN38 (P19814 325-357): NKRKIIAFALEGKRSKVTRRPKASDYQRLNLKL
Chain of AP2:β2FCHO2-N3+C (P62743 whole entry, looked up, tested part not stated): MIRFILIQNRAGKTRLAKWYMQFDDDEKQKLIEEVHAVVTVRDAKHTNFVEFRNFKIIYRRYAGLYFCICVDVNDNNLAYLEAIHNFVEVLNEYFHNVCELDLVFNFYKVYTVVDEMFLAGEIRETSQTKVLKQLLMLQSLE
Chain of AP2:β2FCHO2-N3+C (P84092 whole entry, looked up, tested part not stated): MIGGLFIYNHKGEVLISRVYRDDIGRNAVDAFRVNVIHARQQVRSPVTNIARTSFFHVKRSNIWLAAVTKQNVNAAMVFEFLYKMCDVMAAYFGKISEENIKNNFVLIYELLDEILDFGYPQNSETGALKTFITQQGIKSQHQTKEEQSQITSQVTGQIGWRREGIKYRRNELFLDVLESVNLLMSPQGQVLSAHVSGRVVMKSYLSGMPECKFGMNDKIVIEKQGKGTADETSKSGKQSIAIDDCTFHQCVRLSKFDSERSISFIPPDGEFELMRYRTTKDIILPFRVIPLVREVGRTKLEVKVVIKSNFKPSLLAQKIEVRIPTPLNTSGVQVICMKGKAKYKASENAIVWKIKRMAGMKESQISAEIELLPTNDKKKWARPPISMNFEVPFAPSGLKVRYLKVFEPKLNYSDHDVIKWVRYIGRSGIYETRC
Chain of AP2:β2FCHO2-N3+C (P18484 whole entry, looked up, tested part not stated): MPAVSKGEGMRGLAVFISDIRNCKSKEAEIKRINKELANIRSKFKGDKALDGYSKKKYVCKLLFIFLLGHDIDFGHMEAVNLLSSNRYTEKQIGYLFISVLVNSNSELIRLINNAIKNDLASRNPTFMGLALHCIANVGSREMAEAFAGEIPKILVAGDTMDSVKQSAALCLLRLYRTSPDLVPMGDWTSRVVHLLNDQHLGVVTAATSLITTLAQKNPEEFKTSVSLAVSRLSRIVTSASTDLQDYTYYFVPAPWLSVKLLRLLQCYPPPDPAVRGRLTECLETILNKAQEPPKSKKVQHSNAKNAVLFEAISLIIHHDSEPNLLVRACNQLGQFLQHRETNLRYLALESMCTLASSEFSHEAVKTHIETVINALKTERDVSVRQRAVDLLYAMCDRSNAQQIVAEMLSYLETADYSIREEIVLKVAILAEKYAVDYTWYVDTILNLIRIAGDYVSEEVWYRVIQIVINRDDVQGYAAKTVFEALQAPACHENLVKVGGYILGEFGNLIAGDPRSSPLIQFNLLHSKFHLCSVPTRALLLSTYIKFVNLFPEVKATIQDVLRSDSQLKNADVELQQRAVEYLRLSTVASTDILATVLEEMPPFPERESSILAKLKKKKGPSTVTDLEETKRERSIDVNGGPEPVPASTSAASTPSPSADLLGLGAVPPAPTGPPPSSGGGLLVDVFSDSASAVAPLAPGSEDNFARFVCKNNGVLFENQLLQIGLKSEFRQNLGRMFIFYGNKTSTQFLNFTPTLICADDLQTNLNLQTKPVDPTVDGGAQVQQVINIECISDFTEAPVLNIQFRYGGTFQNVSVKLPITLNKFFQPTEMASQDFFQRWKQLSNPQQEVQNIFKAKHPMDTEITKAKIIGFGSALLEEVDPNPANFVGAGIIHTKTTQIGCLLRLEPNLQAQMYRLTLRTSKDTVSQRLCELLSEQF

“FCHO1 C block PPtoGG (from UniProt O14526 427-448) (peptide)” yielded a Kd with AP2 α-appendage greater than 500 µM.

For “FCHO1 C block LEStoAAA (from UniProt O14526 427-448) (peptide)”, the dissociation constant (Kd) with AP2 α-appendage was greater than 500 µM.

Turning to “FCHO2 N1+N2 E320A+E321A+K326A (domain or fragment)”, the fold reduction of binding against the wild type in the assay with Cμ2 came to 5 fold.

For “FCHO1 C block FGtoAA (from UniProt O14526 427-448) (peptide)”, the Kd in the assay with AP2 α-appendage was greater than 500 µM.

Consider “AP2:β2FCHO2-N3+C (from UniProt P18484 1-938; P84092 1-435; P62743 1-142) (complex)”, for which the fold tighter binding than AP2 core with GST-TGN38 worked out at 3 fold.
